Measurements from patent publication US20240060050A1, “CANINE HEPATIC ORGANOIDS” (Iowa State University Research Foundation, Inc., priority 2021, published 2024).

B1: Anti Hot: 337 bp ssDNA HDR template, antisense strand, with 4 bp [ATAG] deletion, electroporated with Cas9 RNP (nucleic acid)
antisense: CAAAGCGATAAGTTTAACCGAACTATCCAACATATACAACCACCCCTGTTACCGACGGTAGTAGGTACCTCGACGTGAGGGAGAGTACTACGACCAAAAACCTTTGTACTGTCGAAACGTTTACGTCCTTAAAGTTCTTTGTTTTGAAAAGGTCAATATTAATTACTTTCATTCATAATAAACACCGTGACTAGAATCTCCAAACTTCTTTTTAGACAATGAATCTTCCTACAAATCGGGAGTAATTTATGTAATCACACAAATAAAGACCCCCTTTTCCCTCCTCAGACTCGATGTCAATTATAACCATTATTCAAACTCTTCTATTATTAGTATT
B2: Sense Hot: 337 bp ssDNA HDR template, sense strand, with 4 bp [ATAG] deletion, electroporated with Cas9 RNP (nucleic acid)
sense: GTTTCGCTATTCAAATTGGCTTGATAGGTTGTATATGTTGGTGGGGACAATGGCTGCCATCATCCATGGAGCTGCACTCCCTCTCATGATGCTGGTTTTTGGAAACATGACAGCTTTGCAAATGCAGGAATTTCAAGAAACAAAACTTTTCCAGTTATAATTAATGAAAGTAAGTATTATTTGTGGCACTGATCTTAGAGGTTTGAAGAAAAATCTGTTACTTAGAAGGATGTTTAGCCCTCATTAAATACATTAGTGTGTTTATTTCTGGGGGAAAAGGGAGGAGTCTGAGCTACAGTTAATATTGGTAATAAGTTTGAGAAGATAATAATCATAA

Tested on: ABCB1 (MDR1) gene, exon 4
Assay: CRISPR/Cas9 HDR template insertion (ABCB1-1Δ knock-in) in liver organoids, amplicon sequencing
Type: cell-based, canine
Excerpt: The HDR template was a Megamer single-stranded DNA (ssDNA) fragment ordered from IDT. It was designed with 35 bp homology arms with a total length of the ssDNA being 337 bp. The HDR template used the exact sequence as the canine organoids were derived from, with the only difference being the 4 bp deletion [ATAG] near the middle of the strand. Both the positive and negative strand were reconstituted separately to determine which incorporation was most efficient.
Approximately 500,000 cells were pooled for each electroporation cuvette. Media was removed from the wells, and organoids were resuspended in 500 μL Advanced DMEM/F12 (Gibco; Ref 12634-010). Organoids were centrifuged at 700 g at 4° C. for 5 min to form a pellet. Media was removed down to 500 μL, and the pellet was resuspended with 500 μL of TrypLETM Express (Gibco, Ref 12604-021) and pipette mixed approximately 15 times to assist in dissociation. Organoids were immediately placed in the hot water bath for 10 minutes at 37° C. and halfway through they were briefly (1 s) vortexed twice. After incubation, the sample was pipette mixed (5 times) and 10 μL of the sample was taken to determine cell concentration and check for successful dissociation. As described in Merenda et al. 2017, clusters of 10-15 cells increased survival post electroporation compared to a single cell suspension (Merenda et al., 2017). Immediately 6 mL of Advanced DMEM/F12 was added to stop the chemical dissociation. Again, organoids were centrifuged at 700 g at 4° C. for 5 min to form a pellet and the supernatant was removed.
During dissociation, the ribonucleoprotein (RNP) was prepared. 150 pmol of crRNA (IDT) and 150 pmol of tracrRNA (IDT) were mixed and heated for 5 min at 95° C. in a thermocycler. Next, the mixture was removed from the heat and allowed to cool to room temperature for ˜10 minutes. Then, 300 pmol of Cas9 Nuclease V3 (IDT) was added and incubated for 10 min at room temperature (RT).
The organoid pellet was resuspended in 90 μL of BTXpress electroporation solution (BTX; Ref 45-0801). […] The solution was added to a chilled cuvette and after the addition of the solution, the cuvette was checked for bubbles, the outside was wiped dry, and placed in a NEPA21 electroporator (Nepagene). The electroporation details can be seen in Table 6. A control GFP plasmid was electroporated separately to help determine the efficiency of electroporation. It is common to add a buffer or media solution to assist in cell recovery after electroporation. Immediately following electroporation, 400 μL of room temperature CMGF+ R/G organoid media as previously described was added to the cuvette, and the organoids were transferred to a 1.5 mL tube. The cell mixture was incubated for 30 min at RT then centrifuged at 700 g for 5 min to form a pellet. […]

[1] = cold shock: 30° C. for 48 hours after electroporation
[2] = incubation at 37° C. after electroporation

Molecule	estimated efficiency of correct HDR template insertion [1] [%]	estimated efficiency of correct HDR template insertion [2] [%]
B1	0	~0.00303
B2	~0.0705	~0.0348
